Measurements as given in patent US20110172153A1 (GENERAL HOSPITAL, published 2011).
Square brackets hold non-standard residues; d marks the D form. Ends that are not written are not given here. hArg = N=C(N)NCCCC[C@H](N)C(=O)O; Aib = CC(C)(N)C(=O)O

T1: rat parathyroid hormone receptor (PTHR) (rat, UniProt P25961 27-591)
T1 sequence: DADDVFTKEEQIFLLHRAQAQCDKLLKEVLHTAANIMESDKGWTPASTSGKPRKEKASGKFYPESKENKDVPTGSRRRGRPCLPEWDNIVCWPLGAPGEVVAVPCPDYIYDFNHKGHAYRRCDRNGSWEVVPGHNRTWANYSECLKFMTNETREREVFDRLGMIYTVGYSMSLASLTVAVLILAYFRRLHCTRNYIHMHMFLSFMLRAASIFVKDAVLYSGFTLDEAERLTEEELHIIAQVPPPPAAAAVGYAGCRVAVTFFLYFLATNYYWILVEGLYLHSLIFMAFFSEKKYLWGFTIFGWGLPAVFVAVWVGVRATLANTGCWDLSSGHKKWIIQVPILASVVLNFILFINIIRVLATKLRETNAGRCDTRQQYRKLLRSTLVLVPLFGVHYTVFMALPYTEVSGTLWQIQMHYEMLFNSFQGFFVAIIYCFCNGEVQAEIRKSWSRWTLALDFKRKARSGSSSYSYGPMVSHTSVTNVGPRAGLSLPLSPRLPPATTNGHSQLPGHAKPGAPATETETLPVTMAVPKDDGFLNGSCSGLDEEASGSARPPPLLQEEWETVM

T2: human parathyroid hormone receptor (PTHR) (human, UniProt Q03431 27-593)
T2 construct: Assayed in membranes of HKRK-B7 cells or of transiently transfected COS-7 cells, or on intact HKRK-B7/HKRK-B64/COS-7 cells; RG = co-transfected with negative-dominant Galpha-s; R0 = receptor alone plus GTPgammaS; also called hPTHR; human PTH receptor
T2 sequence: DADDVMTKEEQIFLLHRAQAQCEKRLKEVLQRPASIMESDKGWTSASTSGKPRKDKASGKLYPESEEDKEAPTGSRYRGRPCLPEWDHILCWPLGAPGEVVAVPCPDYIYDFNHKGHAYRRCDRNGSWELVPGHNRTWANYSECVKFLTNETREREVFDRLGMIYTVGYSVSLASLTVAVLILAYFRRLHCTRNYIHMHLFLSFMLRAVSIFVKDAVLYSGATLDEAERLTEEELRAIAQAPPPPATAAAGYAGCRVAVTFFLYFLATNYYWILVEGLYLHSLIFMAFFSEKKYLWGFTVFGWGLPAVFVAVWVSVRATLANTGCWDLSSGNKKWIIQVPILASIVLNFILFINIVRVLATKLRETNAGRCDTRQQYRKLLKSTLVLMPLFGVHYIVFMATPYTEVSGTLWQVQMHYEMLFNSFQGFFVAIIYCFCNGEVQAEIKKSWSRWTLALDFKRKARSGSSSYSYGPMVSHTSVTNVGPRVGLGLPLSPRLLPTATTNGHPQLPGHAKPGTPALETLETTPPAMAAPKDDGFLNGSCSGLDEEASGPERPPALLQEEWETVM

B1: hPTH(1-28)NH2 (peptide)
peptide: SVSEIQLMHNLGKHLNSMERVEWLRKKL-NH2
B2: [Ala^1,12,Aib^3,Gln^10,homoarginine^11,Trp^14,Arg^19]human(h)PTH(1-28)NH2 (peptide)
peptide: AV[Aib]EIQLMHQ[hArg]AKWLNSMRRVEWLRKKL-NH2
modifications: N-terminus assumed
SMILES: CC[C@H](C)[C@H](NC(=O)[C@H](CCC(=O)O)NC(=O)C(C)(C)NC(=O)[C@@H](NC(=O)[C@H](C)N)C(C)C)C(=O)N[C@@H](CCC(N)=O)C(=O)N[C@@H](CC(C)C)C(=O)N[C@@H](CCSC)C(=O)N[C@@H](Cc1c[nH]cn1)C(=O)N[C@@H](CCC(N)=O)C(=O)N[C@@H](CCCCNC(=N)N)C(=O)N[C@@H](C)C(=O)N[C@@H](CCCCN)C(=O)N[C@@H](Cc1c[nH]c2ccccc12)C(=O)N[C@@H](CC(C)C)C(=O)N[C@@H](CC(N)=O)C(=O)N[C@@H](CO)C(=O)N[C@@H](CCSC)C(=O)N[C@@H](CCCNC(=N)N)C(=O)N[C@@H](CCCNC(=N)N)C(=O)N[C@H](C(=O)N[C@@H](CCC(=O)O)C(=O)N[C@@H](Cc1c[nH]c2ccccc12)C(=O)N[C@@H](CC(C)C)C(=O)N[C@@H](CCCNC(=N)N)C(=O)N[C@@H](CCCCN)C(=O)N[C@@H](CCCCN)C(=O)N[C@@H](CC(C)C)C(N)=O)C(C)C
B3: Trp^1-M-PTH(1-28) (peptide)
peptide: WV[Aib]EIQLMHQ[hArg]AKWLNSMRRVEWLRKKL
B4: A18,22,26-PTHrP(1-28)NH (peptide)
peptide: AVSEHQLLHDKGKSIQDARRRAFLHALI-NH2
B5: A18,26,L22-PTHrP(1-28)NH (peptide)
peptide: AVSEHQLLHDKGKSIQDARRRLFLHALI-NH2
B6: A18,26,N22-PTHrP(1-28)NH (peptide)
peptide: AVSEHQLLHDKGKSIQDARRRNFLHALI-NH2
B7: A18,26,S22-PTHrP(1-28)NH (peptide)
peptide: AVSEHQLLHDKGKSIQDARRRSFLHALI-NH2
B8: A18,26,W22-PTHrP(1-28)NH (peptide)
peptide: AVSEHQLLHDKGKSIQDARRRWFLHALI-NH2
B9: A18,L22,K26-PTHrP(1-28)NH (peptide)
peptide: AVSEHQLLHDKGKSIQDARRRLFLHKLI-NH2
B10: A18,N22,K26-PTHrP(1-28)NH (peptide)
peptide: AVSEHQLLHDKGKSIQDARRRNFLHKLI-NH2
B11: A18,S22,K26-PTHrP(1-28)NH (peptide)
peptide: AVSEHQLLHDKGKSIQDARRRSFLHKLI-NH2
B12: A18,W22,K26-PTHrP(1-28)NH (peptide)
peptide: AVSEHQLLHDKGKSIQDARRRWFLHKLI-NH2
B13: E18,K22,26-PTHrP(1-28)NH (peptide)
peptide: AVSEHQLLHDKGKSIQDERRRKFLHKLI-NH2
B14: E18,K22,A26-PTHrP(1-28)NH (peptide)
peptide: AVSEHQLLHDKGKSIQDERRRKFLHALI-NH2
B15: E18,L22,A26-PTHrP(1-28)NH (peptide)
peptide: AVSEHQLLHDKGKSIQDERRRLFLHALI-NH2
B16: E18,L22,K26-PTHrP(1-28)NH (peptide)
peptide: AVSEHQLLHDKGKSIQDERRRLFLHKLI-NH2
B17: E18,N22,A26-PTHrP(1-28)NH (peptide)
peptide: AVSEHQLLHDKGKSIQDERRRNFLHALI-NH2
B18: E18,N22,K26-PTHrP(1-28)NH (peptide)
peptide: AVSEHQLLHDKGKSIQDERRRNFLHKLI-NH2
B19: E18,S22,A26-PTHrP(1-28)NH (peptide)
peptide: AVSEHQLLHDKGKSIQDERRRSFLHALI-NH2
B20: E18,W22,A26-PTHrP(1-28)NH (peptide)
peptide: AVSEHQLLHDKGKSIQDERRRWFLHALI-NH2
B21: E18,W22,K26-PTHrP(1-28)NH (peptide)
peptide: AVSEHQLLHDKGKSIQDERRRWFLHKLI-NH2
B22: E18,A22,L25,K26-PTHrP(1-28)NH (peptide)
peptide: AVSEHQLLHDKGKSIQDERRRAFLLKLI-NH2
notes: also called EALK-PTHrP(1-28)
B23: A18,22,L25,K26-PTHrP(1-30)NH (peptide)
peptide: AVSEHQLLHDKGKSIQDARRRAFLLKLIAE-NH2
B24: A18,S22,L25,K26-PTHrP(1-28)NH (peptide)
peptide: AVSEHQLLHDKGKSIQDARRRSFLLKLI-NH2
B25: E18,S22,L25,K26-PTHrP(1-28)NH (peptide)
peptide: AVSEHQLLHDKGKSIQDERRRSFLLKLI-NH2
B26: Mc-hPTH(1-34)OH (peptide)
peptide: AVAEIQLMHQRAKWLNSMRRVEWLRKKLQDVHNF-OH
B27: [A1,3,23,Q10,R11]-PTH(1-34)OH (peptide)
peptide: AVAEIQLMHQRGKHLNSMERVEALRKKLQDVHNF-OH
notes: also called [A^1,A^3,A^23,Q^10,R^11]-PTH(1-34)OH; [A1,3,23,Q10,R11]-hPTH(1-34)

Molecular target: T1, rat parathyroid hormone receptor (PTHR)
Assay: cell-based or functional assay

Binder | acute cAMP in ROS17/2.8 cells, EC50 (FIG. 21A) | cAMP in ROS17/2.8 cells, EC50 | IP3 formation, fold less potent than M-PTH(1-28)
B1 | 7.6 nM | 7.39 nM | –
B2 | 0.33 nM | 0.37 nM | –
B3 | – | – | 100 fold

Molecular target: T2, human parathyroid hormone receptor …
Assay: screen, binding to human PIR R0 relative to parent PTHrP(1-28)NH; footnote not given

Binder | human PIR R0 (% parent)
B4 | 160 % parent
B5 | 133 % parent
B6 | 136 % parent
B7 | 133 % parent
B8 | 126 % parent
B9 | 160 % parent
B10 | 139 % parent
B11 | 15 % parent
B12 | 136 % parent
B13 | 120 % parent
B14 | 106 % parent
B15 | 52.5 % parent
B16 | 64.4 % parent
B17 | 53.7 % parent
B18 | 84.4 % parent
B19 | 31.9 % parent
B20 | 18.8 % parent
B21 | 46.6 % parent

Molecular target: T2, human parathyroid hormone receptor …
Assay: ratio of R0 IC50 to RG IC50, hPTHR

Binder | R0/RG selectivity
B22 | 18300

Molecular target: T2, human parathyroid hormone receptor …
Assay: competition radioligand binding, hPTHR R0 conformation
Description: (§1) Binding Studies. Binding studies were performed using cell membranes as described (Dean et al., Mol Endocrinol 20(4):931-43 (2006)). […] Reactions contained a total membrane protein concentration of 20 to 100 μg/mL, and a total radioactivity concentration of approximately 150,000 cpm/ml. Unlabeled peptide ligands and/or GTPγS (Sigma-Aldrich Inc. St. Louis, Mo.) were added to the reactions as indicated. At the end of the reaction, bound and free radioligand were separated by vacuum filtration using a 96-well vacuum filter plate and vacuum filter apparatus (Multi-Screen system with Durapore HV, […] filters; Millipore Corp., Milford, Mass.); the air-dried filters were then detached from the plate and counted for gamma radioactivity using a gamma counter.
(§2) To assess the capacities of various unlabeled peptide ligands to bind to the G protein-uncoupled and G protein-coupled PTHR conformations (R⁰ and RG, respectively), membranes were prepared from transiently transfected COS-7 cells and the following assay conditions.

Binder | IC50
B22 | 1740 nM
B23 | 144 nM

Molecular target: T2, human parathyroid hormone receptor …
Assay: screen, binding to human PIR RG relative to parent PTHrP(1-28)NH; footnote not given

Binder | human PIR RG (% parent)
B4 | 167 % parent
B5 | 163 % parent
B6 | 161 % parent
B7 | 148 % parent
B8 | 120 % parent
B9 | 177 % parent
B10 | 172 % parent
B11 | 175 % parent
B12 | 115 % parent
B13 | 208 % parent
B14 | 192 % parent
B15 | 125 % parent
B16 | 152 % parent
B17 | 140 % parent
B18 | 147 % parent
B19 | 132 % parent
B20 | 116 % parent
B21 | 149 % parent

Molecular target: T2, human parathyroid hormone receptor …
Assay: competition radioligand binding, human PIR R0
Description: as §1, §2

Binder | IC50
B24 | 540 nM
B22 | 1740 nM
B25 | 2060 nM
B23 | 144 nM

Molecular target: T2, human parathyroid hormone receptor …
Assay: cell-based or functional assay

Binder | cAMP in HKRK-B7 cells, EC50 | cAMP in HKRK-B7 cells, Max
B26 | 3.25 nM | 65.5 pm/well
B27 | 1.76 nM | 63.8 pm/well

Molecular target: T2, human parathyroid hormone receptor …
Assay: competition radioligand binding, human PIR RG
Description: as §1, §2

Binder | IC50
B24 | 0.1 nM
B22 | 0.1 nM
B25 | 0.11 nM
B23 | 0.05 nM

Molecular target: T2, human parathyroid hormone receptor …
Assay: competition radioligand binding, human PTH1 receptor R0
Description: as §1, §2

Binder | IC50
B27 | 197 nM

Molecular target: T2, human parathyroid hormone receptor …
Assay: competition radioligand binding, hPTHR RG conformation
Description: as §1, §2

Binder | IC50
B22 | 0.1 nM
B23 | 0.05 nM
